Reference: the supplement of paper PMC11908140

B1: library; numbered along this chain (parent)
chain: MRKPRAAVGSGHRKQAASQEGRQKHAKNNSQAKPSACDGLARQPEEVVLQASVSSYHLFRDVAEVTAFRGSLLSWYDQEKRDLPWRRRAEDEMDLDRRAYAVWVSEVMLQQTQVATVINYYTGWMQKWPTLQDLASASLEEVNQLWAGLGYYSRGRRLQEGARKVVEELGGHMPRTAETLQQLLPGVGRYTAGAIASIAFGQATGVVDGNVARVLCRVRAIGADPSSTLVSQQLWGLAQQLVDPARPGDFNQAAMELGATVCTPQRPLCSQCPVESLCRARQRVEQEQLLASGSLSGSPDVEECAPNTGQCHLCLPPSEPWDQTLGVVNFPRKASRKPPREESSATCVLEQPGALGAQILLVQRPNSGLLAGLWEFPSVTWEPSEQLQRKALLQELQRWAGPLPATHLRHLGEVVHTFSHIKLTYQVYGLALEGQTPVTTVPPGARWLTQEEFHTAAVSTAMKKVFRVYQGQQPGTCMGSKRSQVSSPCSRKKPRMGQQVLDNFFRSHISTDAHSLNSAAQ

Variants of: B1
Experiment: 8OG:A repair function score (normalized; synonymous = 0, nonsense = -1) (normalized log-likelihood score); higher = more repair activity (WT-like)
Conditions: with 8OG:A DNA repair reporter (GFP) in HEK-293 MUTYH KO cells
Method in brief: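 With 10 pg/ml doxycycline, MUTYH knockout HEK-293 cells carrying lentiviral MUTYH cDNA NNN codon-scan libraries were co-transfected with mCherry and an 8OG:A GFP repair reporter. Viable mCherry+ cells were sorted into GFP+ (repair) and GFP− bins at 72 h, three replicates per tile, and tile amplicons were sequenced. Per-tile Rosace fitness scores were then normalized into a repair function score anchored on synonymous and nonsense distributions. Medians were fixed at 0 for synonymous and -1 for nonsense, excluding variants under 300 counts per million at the start.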

First: MRKPRAAVGSGHRKQAASQEGRQKHAKNNSQAKPSACDGLARQPEEVVLQASVSSYHLFRDVAEVTAFRGSLLSWYDQEKRDLPWRRRAEDEMDLDRRAYAVWVSEVMLQQTQVATVINYYTGWMQKWPTLQDLASASLEEVNQLWAGLGYYSRGRRLQEGARKVVEELGGHMPRTAETLQQLLPGVGRYTAGAIASIAFGQATGVVDGNVARVLCRVRAIGADPSSTLVSQQLWGLAQQLVDPARPGDFNQAAMELGATVCTPQRPQCSQCPVESLCRARQRVEQEQLLASGSLSGSPDVEECAPNTGQCHLCLPPSEPWDQTLGVVNFPRKASRKPPREESSATCVLEQPGALGAQILLVQRPNSGLLAGLWEFPSVTWEPSEQLQRKALLQELQRWAGPLPATHLRHLGEVVHTFSHIKLTYQVYGLALEGQTPVTTVPPGARWLTQEEFHTAAVSTAMKKVFRVYQGQQPGTCMGSKRSQVSSPCSRKKPRMGQQVLDNFFRSHISTDAHSLNSAAQ [L268Q]
Second: MRKPRAAVGSGHRKQAASQEGRQKHAKNNSQAKPSACDGLARQPEEVVLQASVSSYHLFRDVAEVTAFRGSLLSWYDQEKRDLPWRRRAEDEMDLDRRAYAVWVSEVMLQQTQVATVINYYTGWMQKWPTLQDLASASLEEVNQLWAGLGYYSRGRRLQEGARKVVEELGGHMPRTAETLQQLLPGVGRYTAGAIASIAFGQATGVVDGNVARVLCRVRAIGADPSSTLVSQQLWGLAQQLVDPARPGDFNQTAMELGATVCTPQRPLCSQCPVESLCRARQRVEQEQLLASGSLSGSPDVEECAPNTGQCHLCLPPSEPWDQTLGVVNFPRKASRKPPREESSATCVLEQPGALGAQILLVQRPNSGLLAGLWEFPSVTWEPSEQLQRKALLQELQRWAGPLPATHLRHLGEVVHTFSHIKLTYQVYGLALEGQTPVTTVPPGARWLTQEEFHTAAVSTAMKKVFRVYQGQQPGTCMGSKRSQVSSPCSRKKPRMGQQVLDNFFRSHISTDAHSLNSAAQ [A253T]
The “8OG:A repair function score” value of the first is higher: -0.0131 for the first, -0.994 for the second.

First: MRKPRAAVGSGHRKQAASQEGRQKHAKNNSQAKPSACDGLARQPEEVVLQASVSSYHLFRDVAEVTAFRGSLLSWYDQEKRDLPWRRRAEDEMDLDRRAYAVWVSEVMLQQTQVATVINYYTGWMQKWPTLQDLASASLEEVNQLWAGLGYYSRGRRLQEGARKVVEELGGHMPRTAETLQQLLPGVGRYNAGAIASIAFGQATGVVDGNVARVLCRVRAIGADPSSTLVSQQLWGLAQQLVDPARPGDFNQAAMELGATVCTPQRPLCSQCPVESLCRARQRVEQEQLLASGSLSGSPDVEECAPNTGQCHLCLPPSEPWDQTLGVVNFPRKASRKPPREESSATCVLEQPGALGAQILLVQRPNSGLLAGLWEFPSVTWEPSEQLQRKALLQELQRWAGPLPATHLRHLGEVVHTFSHIKLTYQVYGLALEGQTPVTTVPPGARWLTQEEFHTAAVSTAMKKVFRVYQGQQPGTCMGSKRSQVSSPCSRKKPRMGQQVLDNFFRSHISTDAHSLNSAAQ [T191N]
Second: MRKPRAAVGSGHRKQAASQEGRQKHAKNNSQAKPSACDGLARQPEEVVLQASVSSYHLFRDVAECTAFRGSLLSWYDQEKRDLPWRRRAEDEMDLDRRAYAVWVSEVMLQQTQVATVINYYTGWMQKWPTLQDLASASLEEVNQLWAGLGYYSRGRRLQEGARKVVEELGGHMPRTAETLQQLLPGVGRYTAGAIASIAFGQATGVVDGNVARVLCRVRAIGADPSSTLVSQQLWGLAQQLVDPARPGDFNQAAMELGATVCTPQRPLCSQCPVESLCRARQRVEQEQLLASGSLSGSPDVEECAPNTGQCHLCLPPSEPWDQTLGVVNFPRKASRKPPREESSATCVLEQPGALGAQILLVQRPNSGLLAGLWEFPSVTWEPSEQLQRKALLQELQRWAGPLPATHLRHLGEVVHTFSHIKLTYQVYGLALEGQTPVTTVPPGARWLTQEEFHTAAVSTAMKKVFRVYQGQQPGTCMGSKRSQVSSPCSRKKPRMGQQVLDNFFRSHISTDAHSLNSAAQ [V65C]
The “8OG:A repair function score” value of the first is lower: -0.68 for the first, -0.00739 for the second.

Going from MRKPRAAVGSGHRKQAASQEGRQKHAKNNSQAKPSACDGLARQPEEVVLQASVSSYHLFRDVAEVTAFRGSLLSWYDQEKRDLPWRRRAEDEMDLDRRAYAVWVSEVMLQQTQVATVINYYTGWMQKWPTLQDLASASLEEVNQLWAGLGYYSRGRRLQEGARKVVEELGGHMPRTAETLQQLLPGVGRYTAGAIASIAFGQATGVVDGNVARVLCRVRAIGADPSSTLVSQQLWGLAQQLVDPARPGDFNQAAMELGATVCTPQRPLCSQCPVESLCRARQRVEQEQLLASGSLSGSPDVEECAPNTGQCHLCLPPSEPWDQTLGVVNFPRKASRKPPREESSATCVLEQPGALGAQILLVQRPNSGLLAGLWEFPSVTWEPSEQLQRKALLQELQRWAGPLPATHLRHLGIVVHTFSHIKLTYQVYGLALEGQTPVTTVPPGARWLTQEEFHTAAVSTAMKKVFRVYQGQQPGTCMGSKRSQVSSPCSRKKPRMGQQVLDNFFRSHISTDAHSLNSAAQ [E413I] to MRKPRAAVGSGHRKQAASQEGRQKHAKNNSQAKPSACDGLARQPEEVVLQASVSSYHLFRDHAEVTAFRGSLLSWYDQEKRDLPWRRRAEDEMDLDRRAYAVWVSEVMLQQTQVATVINYYTGWMQKWPTLQDLASASLEEVNQLWAGLGYYSRGRRLQEGARKVVEELGGHMPRTAETLQQLLPGVGRYTAGAIASIAFGQATGVVDGNVARVLCRVRAIGADPSSTLVSQQLWGLAQQLVDPARPGDFNQAAMELGATVCTPQRPLCSQCPVESLCRARQRVEQEQLLASGSLSGSPDVEECAPNTGQCHLCLPPSEPWDQTLGVVNFPRKASRKPPREESSATCVLEQPGALGAQILLVQRPNSGLLAGLWEFPSVTWEPSEQLQRKALLQELQRWAGPLPATHLRHLGEVVHTFSHIKLTYQVYGLALEGQTPVTTVPPGARWLTQEEFHTAAVSTAMKKVFRVYQGQQPGTCMGSKRSQVSSPCSRKKPRMGQQVLDNFFRSHISTDAHSLNSAAQ [V62H], the “8OG:A repair function score” value falls from 0.00451 to -0.0066.
